Test results published in publication PMC7321154, “Pharmacokinetic Properties of ^68Ga-labelled Folic Acid Conjugates: Improvement Using HEHE Tag” (Molecules, 2020).
Numbered stars: 1 amine (or outer) side, 2 acyl side, 3 side chain; on linkers, the order of the positions; unused ones are H or OH. Peptide text beside a SMILES is read from it. * marks the point of attachment. NODAGA = O=C(O)CN1CCN(CC(=O)O)CCN(C(CCC(=O)*)C(=O)O)CC1; Pteroyl = Nc1nc2ncc(CNc3ccc(C(=O)*)cc3)nc2c(=O)[nH]1; γGlu = O=C(O)[C@H](CCC(=O)[*:2])N[*:1]

Legend:
in vivo [1] = experiment: in vivo; set-up: species or system BALB/c nude mice; settings: female, BALB/c nude, mouse, iv, total radioactivity; for tissue to tissue ratio at 0.5 h / tissue to tissue ratio at 1 h: Differential uptake ratio (DUR)
Method: For the experimental tumor models athymic female BALB/c nude mice (4−5 weeks old, 18−20 g) were subcutaneously inoculated in the right flank with suspended 2 × 10^6 KB cells (150 μL, Opti-MEM (Gibco, Thermo Fisher Scientific, Waltham, MA, USA) and 50% Matrigel (Becton Dickinson, Franklin Lakes, NJ, USA). Tumors were allowed to grow for 12−16 days (tumor weight 500−900 mg). Animals were grouped (N = 3–5/group) and injected with 10−12 MBq/100 μL of each ^68Ga-NODAGA-folate conjugate into the tail vein. At preselected time points of (30, 60, 90, 120 min for rats and 30, 60 min for mice) animals were sacrificed. The organs of interest were collected, blotted dry, weighed, and counted using a WIZARD^2 automatic γ-counter (PerkinElmer). The results are expressed as the percentage of injected activity dose per gram (% ID/g ± SD) for each organ/tissue.

in vivo [2] = experiment: in vivo; set-up: species or system Wistar rats; settings: Wistar, rat, iv, total radioactivity
Method: Normal biodistribution studies were carried out in healthy Wistar rats. Animals were grouped (N = 5/group) and injected with 10−12 MBq/100 μL of each ^68Ga-NODAGA-folate conjugate into the tail vein. Nonspecific uptake in FR-positive organs (e.g., kidneys) was determined by 5 min of folic acid pre-injection (36 μM, 100 μL) in PBS pH 7.4. At preselected time points of (30, 60, 90, 120 min for rats and 30, 60 min for mice) animals were sacrificed. The organs of interest were collected, blotted dry, weighed, and counted using a WIZARD^2 automatic γ-counter (PerkinElmer). The results are expressed as the percentage of injected activity dose per gram (% ID/g ± SD) for each organ/tissue.

in vitro = in vitro ADME; settings: human, plasma
Method: The plasma stability of [^68Ga]Ga-FA-I and [^68Ga]Ga-FA-II was determined in human plasma in vitro.

Molecule `Nc1nc2ncc(CNc3ccc(C(=O)N[C@@H](CCC(=O)N[C@@H](CCCCNC(=O)CCC(C(=O)O)N4CCN(CC(=O)O)CCN(CC(=O)O)CC4)C(=O)N[C@@H](Cc4c[nH]cn4)C(=O)N[C@@H](CCC(=O)O)C(=O)N[C@@H](Cc4c[nH]cn4)C(=O)N[C@@H](CCC(=O)O)C(=O)O)C(=O)O)cc3)nc2c(=O)[nH]1` (stereo partly shown) [[^68Ga]Ga-FA-II, metal not drawn] ({Pteroyl-γGlu}-K(NODAGA)HEHE-OH) has a tissue to tissue ratio at 0.5 h (in vivo [1]; Tumor-to-blood) of 1.6 ± 0.5, a tissue to tissue ratio at 1 h (in vivo [1]; Tumor-to-blood) of 6.1 ± 2.5 and a tissue to tissue ratio at 0.5 h (in vivo [1]; Tumor-to-kidneys) of 0.39 ± 0.18. The tissue to tissue ratio at 1 h (in vivo [1]; Tumor-to-kidneys) was 0.79 ± 0.28, the tissue to tissue ratio at 0.5 h (in vivo [1]; Tumor-to-muscle) was 7.1 ± 2.8 and the tissue to tissue ratio at 1 h (in vivo [1]; Tumor-to-muscle) was 28.9 ± 13.7. For the same molecule, the tissue uptake at 0.5 h (in vivo [1]; accumulation in bladder) was 1.46 ± 0.53 %ID/g, the tissue uptake at 1 h (in vivo [1]; accumulation in bladder) was 0.96 ± 0.46 %ID/g and the tissue uptake at 0.5 h (in vivo [1]; accumulation in brain) was 0.09 ± 0.03 %ID/g. For the same molecule, the tissue uptake at 1 h (in vivo [1]; accumulation in brain) was 0.1 ± 0.03 %ID/g, the tissue uptake at 0.5 h (in vivo [1]; accumulation in intestines) was 0.46 ± 0.15 %ID/g and the tissue uptake at 1 h (in vivo [1]; accumulation in intestines) was 0.45 ± 0.13 %ID/g. The tissue uptake at 0.5 h (in vivo [1]; accumulation in kidneys) was 4.47 ± 0.97 %ID/g, the tissue uptake at 1 h (in vivo [1]; accumulation in kidneys) was 4.64 ± 0.26 %ID/g and the tissue uptake at 0.5 h (in vivo [1]; accumulation in liver) was 0.51 ± 0.13 %ID/g. The tissue uptake at 1 h (in vivo [1]; accumulation in liver) was 0.27 ± 0.08 %ID/g, the tissue uptake at 0.5 h (in vivo [1]; accumulation in muscle) was 0.24 ± 0.04 %ID/g and the tissue uptake at 1 h (in vivo [2]) was 4.27 ± 0.93 %ID/g. The tissue uptake at 0.5 h (in vivo [2]; accumulation in blood) was 0.28 ± 0.03 %ID/g, the tissue uptake at 1 h (in vivo [2]; accumulation in blood) was 0.22 ± 0.06 %ID/g and the tissue uptake at 1.5 h (in vivo [2]; accumulation in blood) was 0.09 ± 0.01 %ID/g. The tissue uptake at 2 h (in vivo [2]; accumulation in blood) was 0.06 ± 0.02 %ID/g, the tissue uptake at 0.5 h (in vivo [2]; accumulation in brain) was 0.04 ± 0.01 %ID/g and the tissue uptake at 1 h (in vivo [2]; accumulation in brain) was 0.02 ± 0.01 %ID/g. It also gave a tissue uptake at 1.5 h (in vivo [2]; accumulation in brain) of 0.02 ± 0.01 %ID/g, a tissue uptake at 2 h (in vivo [2]; accumulation in brain) of 0.01 ± 0.01 %ID/g and a tissue uptake at 0.5 h (in vivo [2]; accumulation in heart) of 0.27 ± 0.07 %ID/g. For the same molecule, the tissue uptake at 1 h (in vivo [2]; accumulation in heart) was 0.16 ± 0.08 %ID/g, the tissue uptake at 1.5 h (in vivo [2]; accumulation in heart) was 0.1 ± 0.01 %ID/g and the tissue uptake at 2 h (in vivo [2]; accumulation in heart) was 0.08 ± 0.01 %ID/g. The tissue uptake at 0.5 h (in vivo [2]; accumulation in kidneys) was 4.03 ± 0.94 %ID/g, the tissue uptake at 1 h (in vivo [2]; accumulation in kidneys) was 4.64 ± 1.8 %ID/g and the tissue uptake at 1.5 h (in vivo [2]; accumulation in kidneys) was 4.42 ± 1.27 %ID/g. For the same molecule, the tissue uptake at 2 h (in vivo [2]; accumulation in kidneys) was 4.34 ± 0.18 %ID/g, the tissue uptake at 0.5 h (in vivo [2]; accumulation in liver) was 0.18 ± 0.06 %ID/g and the tissue uptake at 1 h (in vivo [2]; accumulation in liver) was 0.12 ± 0.06 %ID/g. For the same molecule, the tissue uptake at 1.5 h (in vivo [2]; accumulation in liver) was 0.07 ± 0.01 %ID/g, the tissue uptake at 2 h (in vivo [2]; accumulation in liver) was 0.05 ± 0.01 %ID/g and the tissue uptake at 0.5 h (in vivo [2]; accumulation in lungs) was 0.28 ± 0.06 %ID/g. For the same molecule, the tissue uptake at 1 h (in vivo [2]; accumulation in lungs) was 0.24 ± 0.07 %ID/g, the tissue uptake at 1.5 h (in vivo [2]; accumulation in lungs) was 0.12 ± 0.02 %ID/g and the tissue uptake at 2 h (in vivo [2]; accumulation in lungs) was 0.11 ± 0.02 %ID/g. The tissue uptake at 1 h (in vivo [2]; accumulation in muscle) was 0.06 ± 0.01 %ID/g, the tissue uptake at 1.5 h (in vivo [2]; accumulation in muscle) was 0.04 ± 0.01 %ID/g and the tissue uptake at 2 h (in vivo [2]; accumulation in muscle) was 0.04 ± 0.01 %ID/g. The remaining at 3 h (in vitro) was > 99%.
